Changes are numbered by the printed parent chain. Values belong to the binder of their own block, whether it stands above or below them.
Key:
Recombinant Human IL-13 [1] = target: T1, Recombinant Human IL-13 (human, UniProt P35225 35-146, limits assumed); test: SPR (Biacore)
T1 construct: bought reagent
Protocol: (§1) The BIACORE assay (Biacore, Inc, Piscataway, N.J.) determined the affinity of antibodies or DVD-Ig with kinetic measurements of on-rate and off-rate constants. Binding of antibodies or DVD-Ig proteins to a target antigen (for example, a purified recombinant target antigen) was determined by surface plasmon resonance-based measurements with a Biacore®1000 or 3000 instrument (Biacore® AB, Uppsala, Sweden) using running HBS-EP (10 mM HEPES [pH 7.4], 150 mM NaCl, 3 mM EDTA, and 0.005% surfactant P20) at 25° C. All chemicals were obtained from Biacore® AB (Uppsala, Sweden) or otherwise from a different source as described in the text. For example, approximately 5000 RU of goat anti-mouse IgG, (Fcγ), fragment specific polyclonal antibody (Pierce Biotechnology Inc, Rockford, Ill.) diluted in 10 mM sodium acetate (pH 4.5) was directly immobilized across a CM5 research grade biosensor chip using a standard amine coupling kit according to manufacturer's instructions and procedures at 25 μg/ml. Unreacted moieties on the biosensor surface were blocked with ethanolamine. Modified carboxymethyl dextran surface in flowcell 2 and 4 was used as a reaction surface. Unmodified carboxymethyl dextran without goat anti-mouse IgG in flow cell 1 and 3 was used as the reference surface. For kinetic analysis, rate equations derived from the 1:1 Langmuir binding model were fitted simultaneously to association and dissociation phases of all eight injections (using global fit analysis) with the use of Biaevaluation 4.0.1 software. Purified antibodies or DVD-Ig proteins were diluted in HEPES-buffered saline for capture across goat anti-mouse IgG specific reaction surfaces. Antibodies or DVD-Ig proteins to be captured as a ligand (25 μg/ml) were injected over reaction matrices at a flow rate of 5 μl/minute. The association and dissociation rate constants, kₒₙ (M⁻¹s⁻¹) and koff (s⁻¹) were determined under a continuous flow rate of 25 μl/minute. Rate constants were derived by making kinetic binding measurements at different antigen concentrations ranging from 10-200 nM. The equilibrium dissociation constant (M) of the reaction between antibodies or DVD-Ig proteins and the target antigen was then calculated from the kinetic rate constants by the following formula: KD=koff/kₒₙ. Binding was recorded as a function of time and kinetic rate constants were calculated.

Recombinant Human IL-17 [2] = target: T2, Recombinant Human IL-17 (human, UniProt Q16552 20-155, limits assumed); test: SPR (Biacore)
T2 construct: bought reagent; also called IL-17A
T2 sequence (looked up): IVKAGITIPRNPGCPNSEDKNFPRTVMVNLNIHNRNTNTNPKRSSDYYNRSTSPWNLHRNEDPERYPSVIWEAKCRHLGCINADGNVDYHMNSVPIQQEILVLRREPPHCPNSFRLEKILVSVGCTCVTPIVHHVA
Protocol: as §1

Recombinant Human IL-17 [3] = target: T2, Recombinant Human IL-17; test: cell-based or functional assay
Recombinant Human IL-13 [4] = target: T1, Recombinant Human IL-13; test: cell-based or functional assay

T1 sequence (P35225 35-146 limits assumed): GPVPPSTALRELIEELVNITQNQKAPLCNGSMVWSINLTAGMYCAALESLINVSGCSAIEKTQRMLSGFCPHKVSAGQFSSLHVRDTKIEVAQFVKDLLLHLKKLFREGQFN

B3: DVD2158 (bispecific antibody)
VH: EVTLRESGPGLVKPTQTLTLTCTLYGFSLSTSDMGVDWIRQPPGKGLEWLAHIWWDDVKRYNPALKSRLTISKDTSKNQVVLKLTSVDPVDTATYYCARTVSSGYIYYAMDYWGQGTLVTVSSASTKGPSVFPLAPEVQLVQSGAEVKKPGSSVKVSCKASGGSFGGYGIGWVRQAPGQGLEWMGGITPFFGFADYAQKFQGRVTITADESTTTAYMELSGLTSDDTAVYYCARDPNEFWNGYYSTHDFDSWGQGTTVTVSS
VL: DIQMTQSPSSLSASVGDRVTISCRASQDIRNYLNWYQQKPGKAPKLLIFYTSKLHSGVPSRFSGSGSGTDYTLTISSLQPEDIATYYCQQGLTPPLTFGGGTKVEIKRTVAAPEIVLTQSPDFQSVTPKEKVTITCRASQDIGSELHWYQQKPDQPPKLLIKYASHSTSGVPSRFSGSGSGTDFTLTINGLEAEDAGTYYCHQTDSLPYTFGPGTKVDIKR
notes: DVD-Ig; also called DVD2158H; DVD2158L
Kd (Recombinant Human IL-13 [1]): 0.086 nM
koff (Recombinant Human IL-13 [1]): 0.00014 s⁻¹
kon (Recombinant Human IL-13 [1]): 1.6e+06 M⁻¹ s⁻¹
Kd (Recombinant Human IL-17 [2]): < 0.05 nM
koff (Recombinant Human IL-17 [2]): < 1e-06 s⁻¹
kon (Recombinant Human IL-17 [2]): 20000 M⁻¹ s⁻¹
C-Terminal VD IL17 Neutralization Assay IC50 (Recombinant Human IL-17 [3]): 0.0998 nM
N-Terminal VD IL13 Neutralization Assay IC50 (Recombinant Human IL-13 [4]): 0.131 nM

B4: DVD2164 (bispecific antibody)
VH: EVTLRESGPGLVKPTQTLTLTCTLYGFSLSTSDMGVDWIRQPPGKGLEWLAHIWWDDVKRYNPALKSRLTISKDTSKNQVVLKLTSVDPVDTATYYCARTVSSGYIYYAMDYWGQGTLVTVSSASTKGPSVFPLAPEVQLVQSGAEVKKPGESVKISCKASGGSFRSYGISWVRQAPGQGLEWMGGITHFFGITDYAQKFQGRVTITADESTTTAYMELSGLTSDDTAVYYCAREPNDFWNGYYDTHDFDSWGQGTTVTVSS
VL: B3 VL with D141N, P156S, T168I, G197A, T204S, S206T, Y209H, P213Q
notes: DVD-Ig; also called DVD2164H; DVD2164L
Kd (Recombinant Human IL-13 [1]): 0.11 nM
koff (Recombinant Human IL-13 [1]): 0.00017 s⁻¹
kon (Recombinant Human IL-13 [1]): 1.5e+06 M⁻¹ s⁻¹
Kd (Recombinant Human IL-17 [2]): 1.7 nM
koff (Recombinant Human IL-17 [2]): 3.1e-05 s⁻¹
kon (Recombinant Human IL-17 [2]): 18000 M⁻¹ s⁻¹
C-Terminal VD IL17 Neutralization Assay IC50 (Recombinant Human IL-17 [3]): 0.135 nM
N-Terminal VD IL13 Neutralization Assay IC50 (Recombinant Human IL-13 [4]): 0.146 nM

The next binders have a lower Kd (Recombinant Human IL-13 [1]) than those just listed; values first:

Kd (Recombinant Human IL-13 [1]): 0.045 nM
koff (Recombinant Human IL-13 [1]): 6e-05 s⁻¹
kon (Recombinant Human IL-13 [1]): 1.3e+06 M⁻¹ s⁻¹
Kd (Recombinant Human IL-17 [2]): 0.025 nM
koff (Recombinant Human IL-17 [2]): 4.6e-06 s⁻¹
kon (Recombinant Human IL-17 [2]): 180000 M⁻¹ s⁻¹
C-Terminal VD IL17 Neutralization Assay IC50 (Recombinant Human IL-17 [3]): 0.0072 nM
N-Terminal VD IL13 Neutralization Assay IC50 (Recombinant Human IL-13 [4]): 0.096 nM
B1: DVD2200 (bispecific antibody)
VH: EVQLVQSGAEVKKPGASVKVSCKASGYTFTSYWMHWVRQAPGQGLEWIGNINPKGGSNIYNEKFQGRVTMTRDTSISTAYMELSRLRSDDTAVYYCARLDYFGDSFDLWGQGTTVTVSSASTKGPSVFPLAPEVQLVQSGAEVKKPGESVKISCKASGGSFRSYGISWVRQAPGQGLEWMGGITHFFGITDYAQKFQGRVTITADESTTTAYMELSGLTSDDTAVYYCAREPNDFWNGYYDTHDFDSWGQGTTVTVSS
VL: DIQMTQSPSSLSASVGDRVTITCRASQGIRNYLNWYQQKPGKAPKLLIYYASNLEVGVPSRFSGSGSGTDYTLTISSLQPEDFATYYCQQDNRFPYTFGGGTKVEIKRTVAAPEIVLTQSPDFQSVTPKEKVTITCRASQNIGSELHWYQQKPDQSPKLLIKYASHSISGVPSRFSGSGSGTDFTLTINGLEAEDAATYYCHQSDTLPHTFGQGTKVDIKR
notes: DVD-Ig; also called DVD2200H; DVD2200L

Kd (Recombinant Human IL-13 [1]): 0.024 nM
koff (Recombinant Human IL-13 [1]): 5.7e-05 s⁻¹
kon (Recombinant Human IL-13 [1]): 2.4e+06 M⁻¹ s⁻¹
Kd (Recombinant Human IL-17 [2]): 0.04 nM
koff (Recombinant Human IL-17 [2]): 6.3e-05 s⁻¹
kon (Recombinant Human IL-17 [2]): 1.6e+06 M⁻¹ s⁻¹
N-Terminal VD IL17 Neutralization Assay IC50 (Recombinant Human IL-17 [3]): 0.0116 nM
C-Terminal VD IL13 Neutralization Assay IC50 (Recombinant Human IL-13 [4]): 0.092 nM
B2: DVD2201 (bispecific antibody)
VH: EVQLVQSGAEVKKPGESVKISCKASGGSFRSYGISWVRQAPGQGLEWMGGITHFFGITDYAQKFQGRVTITADESTTTAYMELSGLTSDDTAVYYCAREPNDFWNGYYDTHDFDSWGQGTTVTVSSASTKGPSVFPLAPEVQLVQSGAEVKKPGASVKVSCKASGYTFTSYWMHWVRQAPGQGLEWIGNINPKGGSNIYNEKFQGRVTMTRDTSISTAYMELSRLRSDDTAVYYCARLDYFGDSFDLWGQGTTVTVSS
VL: EIVLTQSPDFQSVTPKEKVTITCRASQNIGSELHWYQQKPDQSPKLLIKYASHSISGVPSRFSGSGSGTDFTLTINGLEAEDAATYYCHQSDTLPHTFGQGTKVDIKRTVAAPDIQMTQSPSSLSASVGDRVTITCRASQGIRNYLNWYQQKPGKAPKLLIYYASNLEVGVPSRFSGSGSGTDYTLTISSLQPEDFATYYCQQDNRFPYTFGGGTKVEIKR
notes: DVD-Ig; also called DVD2201H; DVD2201L
